The values that follow are results of earlier work, collected in US20200179530A1, “TARGETED DELIVERY OF THERAPEUTIC AGENTS AND IMAGING REAGENTS TO PANCREATIC CANCER CELLS” (UNIVERSITY OF MIAMI, priority 2016, published 2020).

In the case of “AvidinOX: avidin variant containing aldehyde groups, generated by ligand-assisted sugar oxidation of avidin by sodium periodate”, the half-life in tissue result is on record as “weeks”.
Regarding “native avidin: native avidin, comparator for AvidinOX half-life”, the half-life result (tissue) is “about two”.
